“Also recorded” adds a separate entry of the source.

The test concerns Gas6-mediated Axl signalling (phosphorylation of Akt on Ser^473). As to the kind of experiment: Gas6-induced Axl downstream signalling, Western blot of phospho-Akt (Ser^473). The test is classed as cell-based, human. The conditions noted are these: HeLa cells, 1 μg/mL antibody for 1 hr, then mouse Gas6 10 μg/mL for 20 min. As to the method: Western blot analysis illustrating inhibition of Gas6-mediated Axl signalling in the presence of mouse monoclonal antibodies 10C9 and 10G5. Phosphorylation of Akt on Ser^473 was used as surrogate readout for Axl activity. M, molecular weight markers. Immunoblots of total cell lysates were probed with anti-phospho-Akt (Ser^473), or anti-GAPDH (glyceraldehyde 3-phosphate dehydrogenase) as loading control.
The experiments were performed using human cervical cancer derived cell line HeLa (ATCC® CCL-2™). The cells were grown in T175 flasks to 80% confluency in MEM culture medium (Sigma) supplemented with 10% FBS, penicillin-streptomycin and L-glutamine. The cells were washed with PBS and detached by treatment with 0.25% Trypsin/EDTA (Sigma) followed by centrifugation and resuspension in fresh medium (MEM/0.5% FBS). The cells were seeded in Petri dishes (3×10^6 cells per dish) in MEM medium supplemented with 10% FBS. After three hrs incubation at 37° C., the cells were washed with PBS and kept in starvation medium (MEM/0.5% FBS) overnight. The cells were pre-incubated with anti-Axl antibody 10C9 or 10G5 at concentration 1 μg/mL for 1 hr followed by stimulation with Axl ligand, recombinant mouse Gas6 (R&D Systems), at concentration 10 μg/mL for 20 min. […] Detection with anti-GAPDH antibody (Millipore) was used as loading control.

B1: 10C9: mouse anti-Axl monoclonal antibody from hybridoma UT-10C9-B9, IgG2b; VH SEQ ID NO: 3, VL SEQ ID NO: 4 (antibody, listed as Mus musculus, V domains shown)
VH: QVQLQQPGPELVKPGASVKISCKTSDYNFTRYYIHWVKQRPGQGLEWIGWIYPGTGDSKYNEKFKGRATLTADTSSSTAYMQLSSQTSEDSAVYFCARNGNYWYFDVWGAGTAVTVSS
VL: DIVMTQAAPSGPVTPGESVSISCRSSKSLLHSNGNTYLYWFLQRPGQSPQLLIYRMSNLASGVPDRFSGSGSGTAFTLRISRVEAEDVGIYYCMQHREYPFTFGGGTKLEIK
With B1, the “Gas6-induced phosphorylation of Akt on Ser^473” value is “significantly reduces; also recorded: significantly be reduced”.

The record behind these values is patent US10208121B2, “Anti-Axl antagonistic antibodies” (BERGEN TEKNOLOGIOVERFORING AS, priority 2014, dated 2019).
